{"source": "patent US20100260717", "about": "“METHODS OF […] A […] FAMILY VIRAL INFECTION, COMPOSITIONS FOR […] A […] FAMILY VIRAL INFECTION, AND […] ASSAYS FOR […] COMPOSITIONS FOR […] A […] FAMILY VIRAL INFECTION” (published 2010)", "target": "HuR (ELAVL1) (Homo sapiens, UniProt Q15717 Q15717:1-326)", "sequence (Q15717 whole entry, one chain of several)": "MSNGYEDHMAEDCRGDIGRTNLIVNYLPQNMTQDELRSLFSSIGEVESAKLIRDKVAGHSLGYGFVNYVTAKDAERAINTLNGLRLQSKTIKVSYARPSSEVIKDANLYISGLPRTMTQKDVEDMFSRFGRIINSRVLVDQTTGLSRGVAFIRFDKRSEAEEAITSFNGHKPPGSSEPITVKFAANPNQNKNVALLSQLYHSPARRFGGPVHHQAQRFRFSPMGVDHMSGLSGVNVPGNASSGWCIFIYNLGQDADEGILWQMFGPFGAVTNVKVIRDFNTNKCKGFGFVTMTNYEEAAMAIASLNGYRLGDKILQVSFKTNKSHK", "experiment": "MITOMI; not inhibited by clemizole 0.1 mM, inhibited by ATA", "conditions": "tags: C-terminal V5-6xHis; bodipy-Lys labelled; wheat germ extract; ORFeome clone (Open Biosystems); label: Cy3", "description": "Binding of HuR to the consensus 4A RNA sequence was tested in the presence of the inhibitory molecules shown to inhibit RNA binding by NS4B."}
{"binder": "AUUUAUUUAUUUAUUUA (ssRNA)", "note": "[4A]", "values": [{"measurement": "binding result", "result": "binds"}]}
